According to the supplement of paper PMC5998384:

Assays:
HeLa Kyoto [1] = assay: solubility in G1/S (NP-40 vs SDS abundance) (log2 ratio); higher = more soluble; conditions: cell cycle stage: G1/S
HeLa Kyoto [2] = assay: melting temperature (median over replicates), in situ; higher = more thermally stable
HeLa Kyoto [3] = assay: solubility change mitosis vs G1/S (difference of NP-40 vs SDS log2 ratios) (log2 ratio difference); higher = more soluble in mitosis
HeLa Kyoto [4] = assay: thermal stability score vs G1/S (z-score of summed log2 fold changes over temperatures); higher = more thermally stable than in G1/S
[5] = cell cycle stage: early G1 (4.5 h after nocodazole release)
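For melting temperature (median over replicates), in situ in this document: HeLa Kyoto cells synchronized by double thymidine or nocodazole block, proteins quantified by TMT10plex mass spectrometry, three independent biological replicates.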
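For solubility change mitosis vs G1/S (difference of NP-40 vs SDS log2 ratios) in this document: synchronized HeLa Kyoto cells (double thymidine block for G1/S, nocodazole release for mitosis), protein amounts in NP-40 versus SDS lysates quantified by mass spectrometry, three biological replicates.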
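For solubility in G1/S (NP-40 vs SDS abundance) in this document: HeLa Kyoto cells arrested at G1/S by double thymidine block, proteins quantified by TMT10plex mass spectrometry in mild NP-40 versus SDS extracts, three biological replicates.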
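For thermal stability score vs G1/S (z-score of summed log2 fold changes over temperatures) in this document: synchronized HeLa Kyoto cells, proteins quantified by TMT10plex mass spectrometry, three biological replicates, mitosis taken 0.5 h after nocodazole release, G1/S directly after double thymidine block.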

| Sequence | solubility in G1/S (log2) (HeLa Kyoto [1]) | melting temperature (HeLa Kyoto [2]; cell cycle stage: G1/S) [°C] | melting temperature (HeLa Kyoto [2]; cell cycle stage: mitosis) [°C] | solubility change mitosis (log2) (HeLa Kyoto [3]) | thermal stability score (HeLa Kyoto [4]; [5]) | thermal stability score (HeLa Kyoto [4]; cell cycle stage: mitosis) |
| --- | --- | --- | --- | --- | --- | --- |
| MYHSLSETRHPLQPEEQEVGIDPLSSYSNKSGGDSNKNGRRTSSTLDSEGTFNSYRKEWEELFVNNNYLATIRQKGINGQLRSSRFRSICWKLFLCVLPQDKSQWISRIEELRAWYSNIKEIHITNPRKVVGQQDLMINNPLSQDEGSLWNKFFQDKELRSMIEQDVKRTFPEMQFFQQENVRKILTDVLFCYARENEQLLYKQGMHELLAPIVFVLHCDHQAFLHASESAQPSEEMKTVLNPEYLEHDAYAVFSQLMETAEPWFSTFEHDGQKGKETLMTPIPFARPQDLGPTIAIVTKVNQIQDHLLKKHDIELYMHLNRLEIAPQIYGLRWVRLLFGREFPLQDLLVVWDALFADGLSLGLVDYIFVAMLLYIRDALISSNYQTCLGLLMHYPFIGDVHSLILKALFLRDPKRNPRPVTYQFHPNLDYYKARGADLMNKSRTNAKGAPLNINKVSNSLINFGRKLISPAMAPGSAGGPVPGGNSSSSSSVVIPTRTSAEAPSHHLQQQQQQQRLMKSESMPVQLNKGLSSKNISSSPSVESLPGGREFTGSPPSSATKKDSFFSNISRSRSHSKTMGRKESEEELEAQISFLQGQLNDLDAMCKYCAKVMDTHLVNIQDVILQENLEKEDQILVSLAGLKQIKDILKGSLRFNQSQLEAEENEQITIADNHYCSSGQGQGRGQGQSVQMSGAIKQASSETPGCTDRGNSDDFILISKDDDGSSARGSFSGQAQPLRTLRSTSGKSQAPVCSPLVFSDPLMGPASASSSNPSSSPDDDSSKDSGFTIVSPLDI [TBC1D5] | 0.207 | 50.7 | 50.1 | -0.272 | 0.296 | 0.901 |
| MDADDSRAPKGSLRKFLEHLSGAGKAIGVLTSGGDAQGMNAAVRAVVRMGIYVGAKVYFIYEGYQGMVDGGSNIAEADWESVSSILQVGGTIIGSARCQAFRTREGRLKAACNLLQRGITNLCVIGGDGSLTGANLFRKEWSGLLEELARNGQIDKEAVQKYAYLNVVGMVGSIDNDFCGTDMTIGTDSALHRIIEVVDAIMTTAQSHQRTFVLEVMGRHCGYLALVSALACGADWVFLPESPPEEGWEEQMCVKLSENRARKKRLNIIIVAEGAIDTQNKPITSEKIKELVVTQLGYDTRVTILGHVQRGGTPSAFDRILASRMGVEAVIALLEATPDTPACVVSLNGNHAVRLPLMECVQMTQDVQKAMDERRFQDAVRLRGRSFAGNLNTYKRLAIKLPDDQIPKTNCNVAVINVGAPAAGMNAAVRSAVRVGIADGHRMLAIYDGFDGFAKGQIKEIGWTDVGGWTGQGGSILGTKRVLPGKYLEEIATQMRTHSINALLIIGGFEAYLGLLELSAAREKHEEFCVPMVMVPATVSNNVPGSDFSIGADTALNTITDTCDRIKQSASGTKRRVFIIETMGGYCGYLANMGGLAAGADAAYIFEEPFDIRDLQSNVEHLTEKMKTTIQRGLVLRNESCSENYTTDFIYQLYSEEGKGVFDCRKNVLGHMQQGGAPSPFDRNFGTKISARAMEWITAKLKEARGRGKKFTTDDSICVLGISKRNVIFQPVAELKKQTDFEHRIPKEQWWLKLRPLMKILAKYKASYDVSDSGQLEHVQPWSV [PFKP] | -0.0125 | 57.4 | 58.3 | -0.138 | -0.744 | -1.49 |
| MGRRSRGRRLQQQQRPEDAEDGAEGGGKRGEAGWEGGYPEIVKENKLFEHYYQELKIVPEGEWGQFMDALREPLPATLRITGYKSHAKEILHCLKNKYFKELEDLEVDGQKVEVPQPLSWYPEELAWHTNLSRKILRKSPHLEKFHQFLVSETESGNISRQEAVSMIPPLLLNVRPHHKILDMCAAPGSKTTQLIEMLHADMNVPFPEGFVIANDVDNKRCYLLVHQAKRLSSPCIMVVNHDASSIPRLQIDVDGRKEILFYDRILCDVPCSGDGTMRKNIDVWKKWTTLNSLQLHGLQLRIATRGAEQLAEGGRMVYSTCSLNPIEDEAVIASLLEKSEGALELADVSNELPGLKWMPGITQWKVMTKDGQWFTDWDAVPHSRHTQIRPTMFPPKDPEKLQAMHLERCLRILPHHQNTGGFFVAVLVKKSSMPWNKRQPKLQGKSAETRESTQLSPADLTEGKPTDPSKLESPSFTGTGDTEIAHATEDLENNGSKKDGVCGPPPSKKMKLFGFKEDPFVFIPEDDPLFPPIEKFYALDPSFPRMNLLTRTTEGKKRQLYMVSKELRNVLLNNSEKMKVINTGIKVWCRNNSGEEFDCAFRLAQEGIYTLYPFINSRIITVSMEDVKILLTQENPFFRKLSSETYSQAKDLAKGSIVLKYEPDSANPDALQCPIVLCGWRGKASIRTFVPKNERLHYLRMMGLEVLGEKKKEGVILTNESAASTGQPDNDVTEGQRAGEPNSPDAEEANSPDVTAGCDPAGVHPPR [NSUN2] | 0.0447 | 46.6 | 49.2 | -0.00496 | 5.62 | 11.8 |
| MEPEAPRRRHTHQRGYLLTRNPHLNKDLAFTLEERQQLNIHGLLPPSFNSQEIQVLRVVKNFEHLNSDFDRYLLLMDLQDRNEKLFYRVLTSDIEKFMPIVYTPTVGLACQQYSLVFRKPRGLFITIHDRGHIASVLNAWPEDVIKAIVVTDGERILGLGDLGCNGMGIPVGKLALYTACGGMNPQECLPVILDVGTENEELLKDPLYIGLRQRRVRGSEYDDFLDEFMEAVSSKYGMNCLIQFEDFANVNAFRLLNKYRNQYCTFNDDIQGTASVAVAGLLAALRITKNKLSDQTILFQGAGEAALGIAHLIVMALEKEGLPKEKAIKKIWLVDSKGLIVKGRASLTQEKEKFAHEHEEMKNLEAIVQEIKPTALIGVAAIGGAFSEQILKDMAAFNERPIIFALSNPTSKAECSAEQCYKITKGRAIFASGSPFDPVTLPNGQTLYPGQGNNSYVFPGVALGVVACGLRQITDNIFLTTAEVIAQQVSDKHLEEGRLYPPLNTIRDVSLKIAEKIVKDAYQEKTATVYPEPQNKEAFVRSQMYSTDYDQILPDCYSWPEEVQKIQTKVDQ [ME1] | 0.144 | 56.5 | 56.7 | -0.171 | -1.35 | -1.4 |
| MASLDDPGEVREGFLCPLCLKDLQSFYQLHSHYEEEHSGEDRDVKGQIKSLVQKAKKAKDRLLKREGDDRAESGTQGYESFSYGGVDPYMWEPQELGAVRSHLSDFKKHRAARIDHYVVEVNKLIIRLEKLTAFDRTNTESAKIRAIEKSVVPWVNDQDVPFCPDCGNKFSIRNRRHHCRLCGSIMCKKCMELISLPLANKLTSASKESLSTHTSPSQSPNSVHGSRRGSISSMSSVSSVLDEKDDDRIRCCTHCKDTLLKREQQIDEKEHTPDIVKLYEKLRLCMEKVDQKAPEYIRMAASLNAGETTYSLEHASDLRVEVQKVYELIDALSKKILTLGLNQDPPPHPSNLRLQRMIRYSATLFVQEKLLGLMSLPTKEQFEELKKKRKEEMERKRAVERQAALESQRRLEERQSGLASRAANGEVASLRRGPAPLRKAEGWLPLSGGQGQSEDSDPLLQQIHNITSFIRQAKAAGRMDEVRTLQENLRQLQDEYDQQQTEKAIELSRRQAEEEDLQREQLQMLRERELEREREQFRVASLHTRTRSLDFREIGPFQLEPSREPRTHLAYALDLGSSPVPSSTAPKTPSLSSTQPTRVWSGPPAVGQERLPQSSMPQQHEGPSLNPFDEEDLSSPMEEATTGPPAAGVSLDPSARILKEYNPFEEEDEEEEAVAGNPFIQPDSPAPNPFSEEDEHPQQRLSSPLVPGNPFEEPTCINPFEMDSDSGPEAEEPIEEELLLQQIDNIKAYIFDAKQCGRLDEVEVLTENLRELKHTLAKQKGGTD [RBSN] | 0.33 | 50.7 | 50.4 | -0.00797 | 0.55 | 1.28 |
| MPRKRKCDLRAVRVGLLLGGGGVYGSRFRFTFPGCRALSPWRVRVQRRRCEMSTMFADTLLIVFISVCTALLAEGITWVLVYRTDKYKRLKAEVEKQSKKLEKKKETITESAGRQQKKKIERQEEKLKNNNRDLSMVRMKSMFAIGFCFTALMGMFNSIFDGRVVAKLPFTPLSYIQGLSHRNLLGDDTTDCSFIFLYILCTMSIRQNIQKILGLAPSRAATKQAGGFLGPPPPSGKFS [TMCO1] | -0.0501 | 53.7 | 54.1 | 0.0683 | -0.0145 | -0.0344 |
